Assay results reported in patent US11905559B2, “Materials and methods for controlling gene expression” (priority 2016, dated 2024).

Legend:
guanine-riboswitch = settings: previous in-line measurements; cited from earlier work
[1] = Constant-force / force-jump assay of the full-length riboswitch RNA; assay type: physicochemical
From the text: Moreover, as the successive traces were not reproducible, the anti-terminator conformation could not be assigned to the transitions. […] The function of the random structures can be presumed to destabilize the terminator hairpin and turn “ON” the gene expression. The un-bound trajectories are referred to as the “non-terminator” conformations to distinguish from the traditionally defined anti-terminator conformation. […] To assess the mode of allosteric modulation (tilt-equilibrium or induced-fit), the mechanical unfolding assay was performed in the presence of guanine salts ranging from 1 nM to 1 μM. […] Had this been the case, a gradual shift would have been observed in the equilibrium toward the terminator conformation according to the tilt-equilibrium model. […] Thus, at 16 pN, the terminator fluctuates between the open and the closed states, observed as Y*↔Y and Z*↔Z in FIG. 23A. […] The Keq˜0.1
[formula] implied that the hairpin preferred the open state (90%) at 16 pN (the Keq˜1 at 15.6 pN). The expression platform dynamics and the unfolding scheme are shown in FIGS. 27A-B. That the bi-stabilities are due to the terminator was further confirmed by subjecting the FL-mutant to similar cycles (FIG. 23B). […] The findings thus underscore that only the guanine induces a terminator conformation to the expression platform. Transition Y→Z* (ΔX=14±2.5 nm) indicated a complete unfolding of the aptamer (FIGS. 27A-B).
In a constant-force (CF) experiment, the RNA is held at a preset force through feedback control. The preset force typically fluctuated around the mean with a standard deviation ±0.15 pN. In this mode, data is recorded from 4-40 kHz to capture the fast intermediates. The plots are shown as extension vs. time (as in FIG. 6A). In force-jump (FJ) assay, the force is suddenly jumped from one force to another, and then held constant thereafter, as shown in FIGS. 23A-B.

[2] = Force-ramp mechanical assay of the full-length xpt leader mRNA; assay type: physicochemical
From the text: A dual-beam high-resolution optical tweezers was built that can detect short-lived fluctuations at sub-milliseconds (<0.25 msec) time scale at a single base pair level, with high precision and accuracy. This instrument was used to investigate the conformational dynamics of the full-length (FL) guanine-responsive riboswitch (guanine-riboswitch) and its 69-nt aptamer domain present in the 5′-UTR of an xpt-pbuX operon in B. subtilis. It has been shown that the xpt leader mRNA selectively downregulates the gene expression by transcription termination in the presence of guanine (FIG. 17B). The FL xpt mRNA was subjected to mechanical assays in order to identify the terminator and an anti-terminator conformation. […] The unfolding trajectory (red curve) indicated the melting of the 35-nt terminator hairpin at 16.1±0.5 pN (n=1200 traces) with a transition distance, ΔXt˜15±3 nm. A second transition at 17.9±0.9 pN with a distance, ΔXa˜25-30 nm indicated the unfolding of the 69-nt aptamer. […] The terminator mutant (FL-mutant, FIGS. 17D-E) abolished the 16.0 pN transition, thus supporting the structural assignment.
The forces on the bead were recorded at an acquisition rate of 44 kHz. Data was collected from the stereo phone jacks on the ADC boards of the Tweezers instrument and sent to the host computer audio input for analysis by SignalScope program (Faber Acoustical, LLC). As shown in the plot, power spectral density is fitted with the Lorentzian fit to yield the corner frequency (fc) that was used to calculate the trap stiffness. This setup was used to perform three different mechanical reactions: force-ramp (FR), constant-force (CF) and force-jump (FJ) under a controlled force. In the force-ramp (FR) experiment, the trap was moved at 200 nm/s, which corresponded to a loading rate 7-8 pN/s. […] The force-ramp data is plotted as force vs. extension curves (FEC).

## Nc1nc(N)c2[nH]cnc2n1 [DAP, 2,6-diaminopurine]
guanine-riboswitch
  Kd: ~10 µM

B1: FL xpt mRNA: full-length wild-type guanine riboswitch sequence comprising the aptamer domain and expression platform (SEQ ID NO: 12) (nucleic acid)
chain: AAUAUAAUAGGAACACUCAUAUAAUCGCGUGGAUAUGGCACGCAAGUUUCUACCGGGCACCGUAAAUGUCCGACUAUGGGUGAGCAAUGGAACCGCACGUGUACGGUUUUUUGUGAUAUCAGCAUUGCUUGCUCUUUAUUUGAGCGGGCAAUGCUUUUUUUAUUCUCAUAACGGAGGUAGACAGGAUG
modifications: aptamer_domain (14)..(82); expression_platform (83)..(188)
[1]; 15.6 pN, +G
  Keq of terminator hairpin: ~1
[1]; 16 pN, +G
  Keq of terminator hairpin: ~0.1
  Terminator hairpin in the open state: 90%
  ΔX of transition Y→Z* (complete unfolding of the aptamer): 14±2.5 nm
[1]; 16 pN, +G (FIG. 23A: 200 nM guanine)
  Change in extension of terminator open/closed bi-stabilities (Y*↔Y, Z*↔Z): 15±1.7 nm
[2]; 1 μM guanine
  Force of second transition (unfolding of the 69-nt aptamer): 17.9±0.9 pN
  Transition distance ΔXa (aptamer): 25-30 nm
  Transition distance ΔXt (terminator): ~15±3 nm
[2]; 1 μM guanine, n=1200 traces
  Melting force of the 35-nt terminator hairpin: 16.1±0.5 pN

B2: FL-mutant: full-length mutant guanine riboswitch sequence comprising the aptamer domain and expression platform (SEQ ID NO: 13) (nucleic acid)
chain: AAUAUAAUAGGAACACUCAUAUAAUCGCGUGGAUAUGGCACGCAAGUUUCUACCGGGCACCGUAAAUGUCCGACUAUGGGUGAGCAAUGGAACCGCACGUGUACGGUUUUUUGUGAUAUCAGCAUUGCUUGCUCUUUAUUUGAGCGGCGAAUCGUUUUUUUAUUCUCAUAACGGAGGUAGACAGGAUG
modifications: aptamer_domain (14)..(82); expression_platform (83)..(188)
[1]; 75 traces, 200 nM guanine
  Terminator hopping (in words): without exhibiting a terminator hopping
[2]; force-extension curve
  16.0 pN terminator transition (in words): abolished
